Patent publication US20190134214A1, “GLP-1 Receptor Ligand Moiety Conjugated Oligonucleotides and Uses Thereof” (published 2019)
Square brackets hold non-standard residues; d marks the D form. Ends that are not written are not given here. Aib = CC(C)(N)C(=O)O

B1: 5'-GLP-1 peptide conjugated ASO targeted to MALAT1 (ION 962963) (peptide)
peptide: H[Aib]EGTFTSDVSSYLEEQAAKEFIAWLVKGGPSSGAPPPSC-NH2
modifications: not fully specified (residue 40); also: Cys40 disulfide to 3-mercaptopropionate linker
B2: GLP-1 peptide conjugated ASO targeted to FOXO1 (ION 913193) (peptide)
peptide: H[Aib]EGTFTSDVSSYLEEQAAKEFIAWLVKGGPSSGAPPPSC-NH2
modifications: not fully specified (residue 40); also: Cys40 disulfide via 3-mercaptopropionate linker to 5'-hexylamino ASO ION 913192
B3: GLP-1 conjugated MALAT1 ASO (ISIS 816385) (peptide)
peptide: H[Aib]EGTFTSDVSSYLEEQAAKEFIAWLVKGGPSSGAPPPSC-NH2
modifications: not fully specified (residue 40); also: Cys40 disulfide via 3-mercaptopropionate linker to 5'-hexylamino ASO ISIS 786434

Key:
[1] = target: FLAG-tagged GLP1R, stably expressed in HEK 293 cells (LVX-GLP1R cells)
[2] = target: GLP-1 receptor of mouse primary islets of Langerhans (mouse, UniProt O35659); test: cell-based or functional assay
[3] = target: FLAG-tagged GLP1R, stably expressed in HEK 293 cells (LVX-GLP1R cells); remark: listed apart in the source
[4] = target: human GLP-1 receptor (hGLP1R), stably expressed in HEK293 cells (hGLP1R-HEK) (human, UniProt P43220); test: cell-based or functional assay

| Binder | IC50 of MALAT-1 expression in GLP1R HEK cells [1] [nM] | Islet FOXO1 mRNA levels relative to control (RPLP0), percent of untreated, 96 hours, 1 µM [2] [%] | IC50 of peptide-conjugated ASO activity (MALAT1 RNA) in LVX-GLP1R cells [3] [nM] | IC50 of inhibition of MALAT1 mRNA in hGLP1R-HEK cells [4] [nM] |
| --- | --- | --- | --- | --- |
| B1 | 350 |  |  |  |
| B2 |  | 25 |  |  |
| B3 | 260 |  | 350 | 20 |
